B1: ProCSLA12 probe (dsDNA)
DNA 1: CCCTAAAGGTTGGAGTTGGTCACTCAACCTAACCTTAAATAATGATTCATGTTGTATTC
DNA 2: GAATACAACATGAATCATTATTTAAGGTTAGGTTGAGTGACCAACTCCAACCTTTAGGG
B2: ProCSLA3 probe (dsDNA)
DNA 1: TCACATTTATCACGTTTGAGTTCGATACCAACTTTTTTTTTTTTTTTTTGAGC
DNA 2: GCTCAAAAAAAAAAAAAAAAAGTTGGTATCGAACTCAAACGTGATAAATGTGA
B3: ProCSLA9 probe (dsDNA)
DNA 1: TAAGAAACTTTGATAACTATTAGATGACCAAATTAATTCAATCATACCGTAAATAATTC
DNA 2: GAATTATTTACGGTATGATTGAATTAATTTGGTCATCTAATAGTTATCAAAGTTTCTTA

Target: MBP-DoMYB75 (Dendrobium officinale, UniProt A0A2I0X1N0 1-290)
Sequence (A0A2I0X1N0 entry or part of it): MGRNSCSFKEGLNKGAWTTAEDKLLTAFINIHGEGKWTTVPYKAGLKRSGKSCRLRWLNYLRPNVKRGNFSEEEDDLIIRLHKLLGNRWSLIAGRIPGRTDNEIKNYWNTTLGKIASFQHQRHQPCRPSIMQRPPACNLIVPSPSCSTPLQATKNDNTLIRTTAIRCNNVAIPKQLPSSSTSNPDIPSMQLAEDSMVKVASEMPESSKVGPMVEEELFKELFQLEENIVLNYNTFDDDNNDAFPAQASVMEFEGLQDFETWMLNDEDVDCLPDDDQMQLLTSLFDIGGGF
Experiment: EMSA; competed by unlabeled probe; LightShift Chemiluminescent EMSA Kit (Thermo Fisher) per manufacturer; buffer, salt, pH and temperature not stated
Conditions: protein: recombinant; tags: MBP; label: biotin; blunt

**Q.** Does B1 bind?
**A.** binds

**Q.** Does B2 bind?
**A.** binds

**Q.** Does B3 bind?
**A.** binds

From article PMC12903456, “DoMYB75 coordinately regulates polysaccharide and anthocyanin biosynthesis in Dendrobium officinale”
